In publication PMC11480844:

B1: H2-Kb / E4 (parent)
chain 1: AQSVTQPDARVTVSEGASLQLRCKYSYSGTPYLFWYVQYPRQGLQLLLKYYSGDPVVQGVNGFEAEFIKSNSSFHLRKASVHWSDSAVYFCAVSAGQGGSAKLIFGEGTKLTVSS
chain 2: GGIITQTPKFLIGQEGQKLTLKCQQNFNHDTMYWYRQDSGKGLRLIYYSITENDLQKGDLSEGYDASREKKSSFSLTVTSAQKNEMAVFLCASSIWGDSYEQYFGPGTRLTVL
chain 3: not shown
chain 4: IQKTPQIQVYSRHPPENGKPNILNCYVTQFHPPHIEIQMLKNGKKIPKVEMSDMSFSKDWSFYILAHTEFTPTETDTYACRVKHDSMAEPKTVYWDRDM
chain 5: SIINFEKL
B2: H2-Kb / B7 (parent)
chain 1: GQQVQQSPTSLVLQEGENAELQCNFSTSLNSMQWFYQRPGGSLVSVFYNPSGTKQSGRLTSTTVIKERRSSLHISSSQITDSGTYLCAMERDMGYKLTFGTGTSLLVDP
chain 2: EAAVTQSPRNKVAVTGGKVTLSCNQTNNHNNMYWYRQDTGHGLRLIHYSYGAGSTEKGDIPDGYKASRPSQENFSLILELATPSQTSVYFCASGDPGDQDTQYFGPGTRLLVL
chain 3: not shown
chain 4: B1 chain 4
chain 5: SIINFEKL
B3: H2-Kb / G6 (parent)
chain 1: AQSVTQPDARVTVSEGASLQLRCKYSYFGTPYLFWYVQYPRQGLQLLLKYYPGDPVVQGVNGFEAEFSKSNSSFHLRKASVHWSDWAVYFCAVTPGGSNAKLTFGKGTKLSVKS
chain 2: NSGVVQSPRYIIKGKGERSILKCIPISGHLSVAWYQQTQGQELKFFIQHYDKMERDKGNLPSRFSVQQFDDYHSEMNMSALELEDSAVYFCASSRQGGDNNQAPLFGEGTRLSVL
chain 3: not shown
chain 4: B1 chain 4
chain 5: SIINFEKL

Variants of: B1
Assay: % of reporter cells activated (NFAT-GFP), raw
Conditions: with E4
Also: test concentration or dose not given here.

Ratio to parent, by site and new letter:
chain 5 E6: I 0.873; M 0.54; N 0.619; Q 0.778; C 0.651; V 1.05; F 0.698; K 0.873; R 0.81; P 0.46; H 1.21; T 0.841; Y 1.08; A 0.635; S 0.952; L 0.381; W 0.635; G 0.746; D 1.05
chain 5 F5: L 0.698; C 1.63; D 1.32; K 0.825; E 0.429; N 0.635; I 0.746; H 0.825; M 0.629; A 1.1; G 0.46

Variants of: B2
Assay: % of reporter cells activated (NFAT-GFP), raw
Conditions: with B7; scale: % of reporter cells activated

Ratio to parent: each site, then its substitutions
chain 5 I2: V 1.43; W 1.46; N 2.11; L 1.62; H 1.83; A 1.58; R 0.846; P 1.72; G 1.85; T 1.85; K 1.51; D 1.45; C 1.11; E 1.35; M 1.65; Q 1.25; S 1.45; Y 1.48; F 1.05
chain 5 I3: Y 1.2; S 0.646; P 1.45; T 1.48; K 1.75; H 1.68; F 1.02; M 1.29; G 1.86; L 1.4; Q 1.65; E 1.32; R 0.862; C 1.58; A 1.68; D 1.11; N 1.62; W 1.48; V 1.17
chain 5 E6: C 1.46; D 1.43; W 1.09; H 1.65; Y 0.969; R 1.46; T 1.63; L 1; I 1.14; G 1.45; Q 0.754; K 1.32; P 1.25; M 0.985; S 1.38; V 1.02; F 1.52; A 1.17; N 1.2
chain 5 S1: N 0.862; A 1.63; V 1.8; F 0.831; P 1.74; D 1.55; L 1.03; Q 2.08; I 0.969; K 1.4; M 1.42; W 1.77; G 1.57; E 1.29; C 1.8; H 1.45; T 1.62; Y 1.37; R 1
chain 5 N4: C 0.908; T 1.12; G 1.15; V 0.985; S 1.11; Q 1.08; Y 1.03; I 1.43; K 1.45; M 1.38; E 1.35; A 1.31; H 1.49; R 1; L 1.82; P 0.877; D 1.69; W 1.28; F 1.26
chain 5 L8: C 1.4; F 0.677; N 1; T 0.646; Q 0.938; V 0.585; D 0.615; I 0.831; P 1.11; A 0.862; H 1.23; Y 0.769; E 0.326; R 1.69; S 0.6; G 1.42; M 0.892; W 0.585; K 0.785
chain 5 K7: P 1.48; G 0.738; A 1.17; C 1.05; M 0.908; E 1.14; N 0.954; V 1.17; Q 0.815; I 1.25; H 1.66; T 1.02; L 1.32; F 0.846; S 1.18; Y 1.18; R 0.358; W 0.769; D 1.02
chain 5 F5: N 1.31; W 1.55; S 0.831; H 1.34; C 1.97; K 1.74; Y 1.2; V 0.615; G 1.03; E 1.49; A 1.62; R 0.923; M 1.68; Q 1.25; D 1.55; T 1.05; L 1.46; I 0.938; P 1.74

Variants of: B3
Assay: % of reporter cells activated (NFAT-GFP), raw
Conditions: with G6; scale: % of reporter cells activated

Ratio to parent: each site, then its substitutions
chain 5 L8: D 0.152; E 0.173; G 0.457; I 0.819; S 0.086; A 0.206; H 7.85; N 0.148; R 0.617; F 0.218; T 0.354; Q 0.165; K 0.292; P 0.206; W 1.92; Y 2.09; M 0.267; V 0.56; C 0.251
chain 5 F5: P 0.272; I 0.263; C 0.609; A 0.383; V 0.116; N 0.3; Q 2.04; G 0.198; M 1.34; R 0.247; E 0.424; S 0.362; L 0.959; D 0.313; W 0.263; K 0.284; H 0.395; Y 0.576; T 0.177
chain 5 I3: H 0.288; N 0.181; P 0.206; E 0.395; Q 0.193; K 0.276; S 0.181; V 1.18; R 0.109; G 0.226; F 0.523; Y 0.272; W 0.276; M 0.465; T 0.284; D 0.239; C 0.292; L 0.926; A 0.333
chain 5 N4: E 0.177; R 0.255; W 0.148; M 0.173; P 0.198; F 0.202; Y 0.14; H 0.276; K 0.42; T 0.235; Q 0.128; C 0.177; L 0.284; I 0.272; V 0.193; A 0.251; G 0.239; S 0.193; D 0.267
chain 5 E6: G 0.506; S 0.428; M 0.551; W 7.22; F 0.914; L 0.193; D 2.75; V 0.222; A 0.724; R 0.259; K 0.226; N 0.63; Q 0.292; T 0.362; C 0.21; Y 0.778; P 0.189; H 0.494; I 0.321
chain 5 K7: H 0.292; Y 0.235; A 1.4; D 0.202; T 0.16; V 0.235; S 0.963; G 6.68; C 0.272; F 0.189; P 0.346; N 0.412; E 0.276; M 0.379; W 0.963; I 0.358; Q 0.267; L 0.259; R 14.4
chain 5 I2: P 0.329; R 0.16; T 0.305; K 0.551; E 0.453; A 0.305; L 0.247; F 0.226; H 0.259; Y 0.284; D 0.412; W 0.185; N 0.321; Q 0.255; M 0.214; S 0.115; C 0.239; G 0.288; V 0.292
chain 5 S1: M 0.284; D 0.395; N 0.239; W 0.362; H 0.218; C 0.502; V 1.09; K 2.47; G 0.235; F 0.449; P 1.48; Q 0.42; T 0.222; L 3.02; R 1.64; Y 0.156; E 0.239; A 0.65; I 0.909
